Drawing on paper PMC10786891, “Massively parallel profiling of RNA-targeting CRISPR-Cas13d”, this text covers Kd for 13 molecules.

To fix the notation:
B1: target 1 insG 3' of 21,insG 3' of 9 (mixed)
RNA 1: CACCCGUGCAAAAAUGCAGGGGUCUAAAACUGAGCGGAUAACCUCUCUAUGG
RNA 2: GGGAAUGGAUCCACAUCUACGAAUUCGUACCGAUAGAGAGGUUAGUCCGCUCACCGAGAUCGGAAGAGCACACGU
B2: target 1 U10A,G17A (mixed)
RNA 1: CACCCGUGCAAAAAUGCAGGGGUCUAAAACUGAGCGGAUAACCUCUCUAUGG
RNA 2: GGGAAUGGAUCCACAUCUACGAAUUCGUACCAUAAAGAGGUAAUCCGCUCACCGAGAUCGGAAGAGCACACGU
B3: target 1 insG 3' of 10,insU 3' of 5 (mixed)
RNA 1: CACCCGUGCAAAAAUGCAGGGGUCUAAAACUGAGCGGAUAACCUCUCUAUGG
RNA 2: GGGAAUGGAUCCACAUCUACGAAUUCGUACCAUAGAGAGGUUGAUCCGUCUCACCGAGAUCGGAAGAGCACACGU
B4: target 1 U19C,A20C (mixed)
RNA 1: CACCCGUGCAAAAAUGCAGGGGUCUAAAACUGAGCGGAUAACCUCUCUAUGG
RNA 2: GGGAAUGGAUCCACAUCUACGAAUUCGUACCCCAGAGAGGUUAUCCGCUCACCGAGAUCGGAAGAGCACACGU
B5: target 1 U11C,G12C (mixed)
RNA 1: CACCCGUGCAAAAAUGCAGGGGUCUAAAACUGAGCGGAUAACCUCUCUAUGG
RNA 2: GGGAAUGGAUCCACAUCUACGAAUUCGUACCAUAGAGAGCCUAUCCGCUCACCGAGAUCGGAAGAGCACACGU
B6: target 1 insU 3' of 21,insG 3' of 19 (mixed)
RNA 1: CACCCGUGCAAAAAUGCAGGGGUCUAAAACUGAGCGGAUAACCUCUCUAUGG
RNA 2: GGGAAUGGAUCCACAUCUACGAAUUCGUACCUAUGAGAGAGGUUAUCCGCUCACCGAGAUCGGAAGAGCACACGU
B7: target 1 C7A,C22U (mixed)
RNA 1: CACCCGUGCAAAAAUGCAGGGGUCUAAAACUGAGCGGAUAACCUCUCUAUGG
RNA 2: GGGAAUGGAUCCACAUCUACGAAUUCGUAUCAUAGAGAGGUUAUACGCUCACCGAGAUCGGAAGAGCACACGU
B8: target 1 insG 3' of 3,insC 3' of 3 (mixed)
RNA 1: CACCCGUGCAAAAAUGCAGGGGUCUAAAACUGAGCGGAUAACCUCUCUAUGG
RNA 2: GGGAAUGGAUCCACAUCUACGAAUUCGUACCAUAGAGAGGUUAUCCGCUGCCACCGAGAUCGGAAGAGCACACGU
B9: target 1 insG 3' of 19,insA 3' of 13 (mixed)
RNA 1: CACCCGUGCAAAAAUGCAGGGGUCUAAAACUGAGCGGAUAACCUCUCUAUGG
RNA 2: GGGAAUGGAUCCACAUCUACGAAUUCGUACCAUGAGAGAGAGUUAUCCGCUCACCGAGAUCGGAAGAGCACACGU
B10: target 1 insU 3' of 12,insG 3' of 7 (mixed)
RNA 1: CACCCGUGCAAAAAUGCAGGGGUCUAAAACUGAGCGGAUAACCUCUCUAUGG
RNA 2: GGGAAUGGAUCCACAUCUACGAAUUCGUACCAUAGAGAGGUUUAUCGCGCUCACCGAGAUCGGAAGAGCACACGU
B11: target 1 insC 3' of 9,insC 3' of 8 (mixed)
RNA 1: CACCCGUGCAAAAAUGCAGGGGUCUAAAACUGAGCGGAUAACCUCUCUAUGG
RNA 2: GGGAAUGGAUCCACAUCUACGAAUUCGUACCAUAGAGAGGUUACUCCCGCUCACCGAGAUCGGAAGAGCACACGU
B12: target 1 G13C (mixed)
RNA 1: CACCCGUGCAAAAAUGCAGGGGUCUAAAACUGAGCGGAUAACCUCUCUAUGG
RNA 2: GGGAAUGGAUCCACAUCUACGAAUUCGUACCAUAGAGACGUUAUCCGCUCACCGAGAUCGGAAGAGCACACGU
B13: target 1 G12C,G13A (mixed)
RNA 1: CACCCGUGCAAAAAUGCAGGGGUCUAAAACUGAGCGGAUAACCUCUCUAUGG
RNA 2: GGGAAUGGAUCCACAUCUACGAAUUCGUACCAUAGAGAACUUAUCCGCUCACCGAGAUCGGAAGAGCACACGU

The series concerns the target T1, EsCas13d, nuclease-dead (Eubacterium siraeum, UniProt B0MS50, R295A;H300A;R849A;H854A).
T1 sequence: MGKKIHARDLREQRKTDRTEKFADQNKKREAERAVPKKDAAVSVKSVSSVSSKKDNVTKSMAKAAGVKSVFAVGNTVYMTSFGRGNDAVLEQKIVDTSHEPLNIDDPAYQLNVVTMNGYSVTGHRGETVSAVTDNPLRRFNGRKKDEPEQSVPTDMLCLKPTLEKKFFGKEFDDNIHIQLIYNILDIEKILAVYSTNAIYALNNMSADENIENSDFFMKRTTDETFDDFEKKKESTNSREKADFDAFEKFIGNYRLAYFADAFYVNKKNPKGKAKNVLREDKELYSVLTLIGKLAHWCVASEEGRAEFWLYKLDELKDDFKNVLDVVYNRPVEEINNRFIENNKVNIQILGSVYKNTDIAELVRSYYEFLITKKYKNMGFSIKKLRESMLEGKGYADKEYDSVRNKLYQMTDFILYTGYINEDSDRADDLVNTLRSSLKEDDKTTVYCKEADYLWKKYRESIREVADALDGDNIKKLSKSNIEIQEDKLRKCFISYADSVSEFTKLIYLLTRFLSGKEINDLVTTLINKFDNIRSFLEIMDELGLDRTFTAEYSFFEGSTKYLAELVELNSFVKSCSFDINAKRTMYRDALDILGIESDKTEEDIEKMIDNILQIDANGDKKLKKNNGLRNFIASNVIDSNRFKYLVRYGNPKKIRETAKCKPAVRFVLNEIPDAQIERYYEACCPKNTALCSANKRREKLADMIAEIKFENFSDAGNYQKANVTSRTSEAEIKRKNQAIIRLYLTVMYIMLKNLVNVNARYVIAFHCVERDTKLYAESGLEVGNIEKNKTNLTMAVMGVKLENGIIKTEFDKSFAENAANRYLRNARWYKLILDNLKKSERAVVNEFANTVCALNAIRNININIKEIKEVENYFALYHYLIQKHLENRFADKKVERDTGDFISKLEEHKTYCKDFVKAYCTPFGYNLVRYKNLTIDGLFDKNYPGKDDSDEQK
Kind of series: crRNA (strand 1, pre-loaded); Mg2+; 40 mM Tris-HCl pH 7.5, 150 mM NaCl, 6 mM MgCl2, 1 mM DTT, 0.1% Tween-20, 0.2 mg/ml BSA; 25 C; 10 min per concentration, then washed. As to conditions: tags: His6-TwinStrep-SUMO cleaved; N-terminal SNAP kept (SNAP-Surface 488); label: 3' end held by stalled T7 RNA polymerase.
B1 returned a dissociation constant (Kd) of 70 ± 17 nM.
The result for B2 reads 55 ± 5 nM; that for B3, 43 ± 11 nM.
In the case of B4 it was 94 ± 29 nM; in that of B5, 17.1 ± 2.1 nM; in that of B6, 73 ± 9 nM.
The molecule B7 returned a Kd of 13.8 ± 1.1 nM.
Molecule B8 came in with a dissociation constant (Kd) of 11.4 ± 0.4 nM.
In the case of B9 it was 47 ± 10 nM.
In the case of B10 it was 6.8 ± 0.4 nM.
The result for B11 reads 19.9 ± 1.4 nM; that for B12, 62 ± 16 nM; that for B13, 9.5 ± 0.5 nM.

The Kd is the constant that tells how readily two partners part at equilibrium. Read a low Kd as tighter binding.
